What was measured:
HeLa Kyoto [1] = test: thermal stability score vs G1/S (z-score of summed log2 fold changes over temperatures); higher = more thermally stable than in G1/S
HeLa Kyoto [2] = test: solubility in G1/S (NP-40 vs SDS abundance) (log2 ratio); higher = more soluble; details: cell cycle stage: G1/S
HeLa Kyoto [3] = test: solubility change mitosis vs G1/S (difference of NP-40 vs SDS log2 ratios) (log2 ratio difference); higher = more soluble in mitosis
HeLa Kyoto [4] = test: melting temperature (median over replicates), in situ; higher = more thermally stable
[5] = cell cycle stage: early G1 (4.5 h after nocodazole release)
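Wherever melting temperature (median over replicates), in situ is given: HeLa Kyoto cells synchronized by double thymidine or nocodazole block, proteins quantified by TMT10plex mass spectrometry, three independent biological replicates.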
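Wherever solubility change mitosis vs G1/S (difference of NP-40 vs SDS log2 ratios) is given: synchronized HeLa Kyoto cells (double thymidine block for G1/S, nocodazole release for mitosis), protein amounts in NP-40 versus SDS lysates quantified by mass spectrometry, three biological replicates.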
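Wherever solubility in G1/S (NP-40 vs SDS abundance) is given: HeLa Kyoto cells arrested at G1/S by double thymidine block, proteins quantified by TMT10plex mass spectrometry in mild NP-40 versus SDS extracts, three biological replicates.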
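Wherever thermal stability score vs G1/S (z-score of summed log2 fold changes over temperatures) is given: synchronized HeLa Kyoto cells, proteins quantified by TMT10plex mass spectrometry, three biological replicates, mitosis taken 0.5 h after nocodazole release, G1/S directly after double thymidine block.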

Sequence	thermal stability score (HeLa Kyoto [1]; [5])	thermal stability score (HeLa Kyoto [1]; cell cycle stage: mitosis)	solubility in G1/S (log2) (HeLa Kyoto [2])	solubility change mitosis (log2) (HeLa Kyoto [3])	melting temperature (HeLa Kyoto [4]; cell cycle stage: G1/S)	melting temperature (HeLa Kyoto [4]; cell cycle stage: mitosis)
MQAHELFRYFRMPELVDFRQYVRTLPTNTLMGFGAFAALTTFWYATRPKPLKPPCDLSMQSVEVAGSGGARRSALLDSDEPLVYFYDDVTTLYEGFQRGIQVSNNGPCLGSRKPDQPYEWLSYKQVAELSECIGSALIQKGFKTAPDQFIGIFAQNRPEWVIIEQGCFAYSMVIVPLYDTLGNEAITYIVNKAELSLVFVDKPEKAKLLLEGVENKLIPGLKIIVVMDAYGSELVERGQRCGVEVTSMKAMEDLGRANRRKPKPPAPEDLAVICFTSGTTGNPKGAMVTHRNIVSDCSAFVKATENTVNPCPDDTLISFLPLAHMFERVVECVMLCHGAKIGFFQGDIRLLMDDLKVLQPTVFPVVPRLLNRMFDRIFGQANTTLKRWLLDFASKRKEAELRSGIIRNNSLWDRLIFHKVQSSLGGRVRLMVTGAAPVSATVLTFLRAALGCQFYEGYGQTECTAGCCLTMPGDWTAGHVGAPMPCNLIKLVDVEEMNYMAAEGEGEVCVKGPNVFQGYLKDPAKTAEALDKDGWLHTGDIGKWLPNGTLKIIDRKKHIFKLAQGEYIAPEKIENIYMRSEPVAQVFVHGESLQAFLIAIVVPDVETLCSWAQKRGFEGSFEELCRNKDVKKAILEDMVRLGKDSGLKPFEQVKGITLHPELFSIDNGLLTPTMKAKRPELRNYFRSQIDDLYSTIKV [ACSL1]	-0.625	-1.37	0.0525	-0.213	51.6 °C	52.1 °C
MAEPQPPSGGLTDEAALSCCSDADPSTKDFLLQQTMLRVKDPKKSLDFYTRVLGMTLIQKCDFPIMKFSLYFLAYEDKNDIPKEKDEKIAWALSRKATLELTHNWGTEDDETQSYHNGNSDPRGFGHIGIAVPDVYSACKRFEELGVKFVKKPDDGKMKGLAFIQDPDGYWIEILNPNKMATLM [GLO1]	-0.959	-4.08	0.117	0.168	55.8 °C	54.5 °C
MEPAPSEVRLAVREAIHALSSSEDGGHIFCTLESLKRYLGEMEPPALPREKEEFASAHFSPVLRCLASRLSPAWLELLPHGRLEELWASFFLEGPADQAFLVLMETIEGAAGPSFRLMKMARLLARFLREGRLAVLMEAQCRQQTQPGFILLRETLLGKVVALPDHLGNRLQQENLAEFFPQNYFRLLGEEVVRVLQAVVDSLQGGLDSSVSFVSQVLGKACVHGRQQEILGVLVPRLAALTQGSYLHQRVCWRLVEQVPDRAMEAVLTGLVEAALGPEVLSRLLGNLVVKNKKAQFVMTQKLLFLQSRLTTPMLQSLLGHLAMDSQRRPLLLQVLKELLETWGSSSAIRHTPLPQQRHVSKAVLICLAQLGEPELRDSRDELLASMMAGVKCRLDSSLPPVRRLGMIVAEVVSARIHPEGPPLKFQYEEDELSLELLALASPQPAGDGASEAGTSLVPATAEPPAETPAEIVDGGVPQAQLAGSDSDLDSDDEFVPYDMSGDRELKSSKAPAYVRDCVEALTTSEDIERWEAALRALEGLVYRSPTATREVSVELAKVLLHLEEKTCVVGFAGLRQRALVAVTVTDPAPVADYLTSQFYALNYSLRQRMDILDVLTLAAQELSRPGCLGRTPQPGSPSPNTPCLPEAAVSQPGSAVASDWRVVVEERIRSKTQRLSKGGPRQGPAGSPSRFNSVAGHFFFPLLQRFDRPLVTFDLLGEDQLVLGRLAHTLGALMCLAVNTTVAVAMGKALLEFVWALRFHIDAYVRQGLLSAVSSVLLSLPAARLLEDLMDELLEARSWLADVAEKDPDEDCRTLALRALLLLQRLKNRLLPPASP [TELO2]	-0.195	0.325	-0.341	-0.103	48.8 °C	49.1 °C
MAVSVTPIRDTKWLTLEVCREFQRGTCSRPDTECKFAHPSKSCQVENGRVIACFDSLKGRCSRENCKYLHPPPHLKTQLEINGRNNLIQQKNMAMLAQQMQLANAMMPGAPLQPVPMFSVAPSLATNASAAAFNPYLGPVSPSLVPAEILPTAPMLVTGNPGVPVPAAAAAAAQKLMRTDRLEVCREYQRGNCNRGENDCRFAHPADSTMIDTNDNTVTVCMDYIKGRCSREKCKYFHPPAHLQAKIKAAQYQVNQAAAAQAAATAAAMTQSAVKSLKRPLEATFDLGIPQAVLPPLPKRPALEKTNGATAVFNTGIFQYQQALANMQLQQHTAFLPPVPMVHGATPATVSAATTSATSVPFAATATANQIPIISAEHLTSHKYVTQM [MBNL1]	-3.27	-3.37	0.11	0.353	52.3 °C	52.2 °C
MENLKHIITLGQVIHKRCEEMKYCKKQCRRLGHRVLGLIKPLEMLQDQGKRSVPSEKLTTAMNRFKAALEEANGEIEKFSNRSNICRFLTASQDKILFKDVNRKLSDVWKELSLLLQVEQRMPVSPISQGASWAQEDQQDADEDRRAFQMLRRDNEKIEASLRRLEINMKEIKETLRQYLPPKCMQEIPQEQIKEIKKEQLSGSPWILLRENEVSTLYKGEYHRAPVAIKVFKKLQAGSIAIVRQTFNKEIKTMKKFESPNILRIFGICIDETVTPPQFSIVMEYCELGTLRELLDREKDLTLGKRMVLVLGAARGLYRLHHSEAPELHGKIRSSNFLVTQGYQVKLAGFELRKTQTSMSLGTTREKTDRVKSTAYLSPQELEDVFYQYDVKSEIYSFGIVLWEIATGDIPFQGCNSEKIRKLVAVKRQQEPLGEDCPSELREIIDECRAHDPSVRPSVDEILKKLSTFSK [MLKL]	-0.232	0.87	0.126	-0.0647	49.6 °C	50 °C
MNFAEREGSKRYCIQTKHVAILCAVVVGVGLIVGLAVGLTRSCDSSGDGGPGTAPAPSHLPSSTASPSGPPAQDQDICPASEDESGQWKNFRLPDFVNPVHYDLHVKPLLEEDTYTGTVSISINLSAPTRYLWLHLRETRITRLPELKRPSGDQVQVRRCFEYKKQEYVVVEAEEELTPSSGDGLYLLTMEFAGWLNGSLVGFYRTTYTENGQVKSIVATDHEPTDARKSFPCFDEPNKKATYTISITHPKEYGALSNMPVAKEESVDDKWTRTTFEKSVPMSTYLVCFAVHQFDSVKRISNSGKPLTIYVQPEQKHTAEYAANITKSVFDYFEEYFAMNYSLPKLDKIAIPDFGTGAMENWGLITYRETNLLYDPKESASSNQQRVATVVAHELVHQWFGNIVTMDWWEDLWLNEGFASFFEFLGVNHAETDWQMRDQMLLEDVLPVQEDDSLMSSHPIIVTVTTPDEITSVFDGISYSKGSSILRMLEDWIKPENFQKGCQMYLEKYQFKNAKTSDFWAALEEASRLPVKEVMDTWTRQMGYPVLNVNGVKNITQKRFLLDPRANPSQPPSDLGYTWNIPVKWTEDNITSSVLFNRSEKEGITLNSSNPSGNAFLKINPDHIGFYRVNYEVATWDSIATALSLNHKTFSSADRASLIDDAFALARAQLLDYKVALNLTKYLKREENFLPWQRVISAVTYIISMFEDDKELYPMIEEYFQGQVKPIADSLGWNDAGDHVTKLLRSSVLGFACKMGDREALNNASSLFEQWLNGTVSLPVNLRLLVYRYGMQNSGNEISWNYTLEQYQKTSLAQEKEKLLYGLASVKNVTLLSRYLDLLKDTNLIKTQDVFTVIRYISYNSYGKNMAWNWIQLNWDYLVNRYTLNNRNLGRIVTIAEPFNTELQLWQMESFFAKYPQAGAGEKPREQVLETVKNNIEWLKQHRNTIREWFFNLLESG [ENPEP]	-1.64	-0.842	-0.159	0.193	57.4 °C	55.9 °C
MAANKSKGQSSLALHKVIMVGSGGVGKSALTLQFMYDEFVEDYEPTKADSYRKKVVLDGEEVQIDILDTAGQEDYAAIRDNYFRSGEGFLLVFSITEHESFTATAEFREQILRVKAEEDKIPLLVVGNKSDLEERRQVPVEEARSKAEEWGVQYVETSAKTRANVDKVFFDLMREIRTKKMSENKDKNGKKSSKNKKSFKERCCLL [RALB]	-0.446	-2.23	0.046	0.0599	57 °C	57.7 °C
MDTMMLNVRNLFEQLVRRVEILSEGNEVQFIQLAKDFEDFRKKWQRTDHELGKYKDLLMKAETERSALDVKLKHARNQVDVEIKRRQRAEADCEKLERQIQLIREMLMCDTSGSIQLSEEQKSALAFLNRGQPSSSNAGNKRLSTIDESGSILSDISFDKTDESLDWDSSLVKTFKLKKREKRRSTSRQFVDGPPGPVKKTRSIGSAVDQGNESIVAKTTVTVPNDGGPIEAVSTIETVPYWTRSRRKTGTLQPWNSDSTLNSRQLEPRTETDSVGTPQSNGGMRLHDFVSKTVIKPESCVPCGKRIKFGKLSLKCRDCRVVSHPECRDRCPLPCIPTLIGTPVKIGEGMLADFVSQTSPMIPSIVVHCVNEIEQRGLTETGLYRISGCDRTVKELKEKFLRVKTVPLLSKVDDIHAICSLLKDFLRNLKEPLLTFRLNRAFMEAAEITDEDNSIAAMYQAVGELPQANRDTLAFLMIHLQRVAQSPHTKMDVANLAKVFGPTIVAHAVPNPDPVTMLQDIKRQPKVVERLLSLPLEYWSQFMMVEQENIDPLHVIENSNAFSTPQTPDIKVSLLGPVTTPEHQLLKTPSSSSLSQRVRSTLTKNTPRFGSKSKSATNLGRQGNFFASPMLK [RACGAP1]	1.13	1.61	-0.106	0.141	48.1 °C	49.1 °C
